The source of these data is publication PMC7416607.

In assay [1] the target is poliovirus receptor-related 4 (ovis aries Nectin-4), Nectin 4-Myc (ovis aries). The assay is described as follows: co-IP.
Assay [2] addresses Peste-des-petits-ruminants virus haemagglutinin (H) protein of the Nigeria 75/1 strain, Hv-HA (Peste-des-petits-ruminants virus, strain Nigeria 75/1). As to the kind of experiment: co-IP.
Assay [3] has the same target. The assay is described as follows: SPR. (Surface plasmon resonance follows binding to a sensor surface in real time, without labels.)

For “Peste-des-petits-ruminants virus haemagglutinin (H) protein of the Nigeria 75/1 strain, Hv-HA (natural protein)”, in assay [1], the calibrated ratio of co-IP (percent of Hv and Nectin 4) turned out to be 100%.

The term Kd denotes the constant that tells how readily two partners part at equilibrium. What is called koff is a measure of how fast the partners let go of each other. High values mean fast dissociation, low ones slow dissociation. For orientation: kon means a measure of how fast the partners come together. With “poliovirus receptor-related 4 (ovis aries Nectin-4), Nectin 4-Myc”, the calibrated ratio of co-IP (percent of Hv and Nectin 4) in assay [2] worked out at 100%. In assay [3], this substance came in with a Kd of 306 nM, a koff of 0.000435 s⁻¹ and a kon of 1420 M⁻¹ s⁻¹.
